Source: article PMC11882444 (2025)

Biological target: LHC (LSD1-HDAC-CoREST complex) (Homo sapiens, UniProt O60341, UM171 and InsP6 present)
Experiment: dose-response titration of fluorescein-LHC

B1: KBTBD4 (protein)
chain: MKGGNADSWQREKLASMESPEEPGASMDENYFVNYTFKDRSHSGRVAQGIMKLCLEEELFADVTISVEGREFQLHRLVLSAQSCFFRSMFTSNLKEAHNRVIVLQDVSESVFQLLVDYIYHGTVKLRAEELQEIYEVSDMYQLTSLFEECSRFLARTVQVGNCLQVMWLADRHSDPELYTAAKHCAKTHLAQLQNTEEFLHLPHRLLTDIISDGVPCSQNPTEAIEAWINFNKEEREAFAESLRTSLKEIGENVHIYLIGKESSRTHSLAVSLHCAEDDSISVSGQNSLCHQITAACKHGGDLYVVGGSIPRRMWKCNNATVDWEWCAPLPRDRLQHTLVSVPGKDAIYSLGGKTLQDTLSNAVIYYRVGDNVWTETTQLEVAVSGAAGANLNGIIYLLGGEENDLDFFTKPSRLIQCFDTETDKCHVKPYVLPFAGRMHAAVHKDLVFIVAEGDSLVCYNPLLDSFTRLCLPEAWSSAPSLWKIASCNGSIYVFRDRYKKGDANTYKLDPATSAVTVTRGIKVLLTNLQFVLA
Kd: 13 nM
